The values that follow come from patent publication US20230365714A1 (published 2023).

In assay [1] the target is T1, ROR121 shuffle variant (Ig-like domain of ROR1, CRD of ROR2, kringle domain of ROR1) (human (ROR1/ROR2 chimera), UniProt Q01973 30-937).
T1 construct: Transiently expressed on CHO cells
T1 chain: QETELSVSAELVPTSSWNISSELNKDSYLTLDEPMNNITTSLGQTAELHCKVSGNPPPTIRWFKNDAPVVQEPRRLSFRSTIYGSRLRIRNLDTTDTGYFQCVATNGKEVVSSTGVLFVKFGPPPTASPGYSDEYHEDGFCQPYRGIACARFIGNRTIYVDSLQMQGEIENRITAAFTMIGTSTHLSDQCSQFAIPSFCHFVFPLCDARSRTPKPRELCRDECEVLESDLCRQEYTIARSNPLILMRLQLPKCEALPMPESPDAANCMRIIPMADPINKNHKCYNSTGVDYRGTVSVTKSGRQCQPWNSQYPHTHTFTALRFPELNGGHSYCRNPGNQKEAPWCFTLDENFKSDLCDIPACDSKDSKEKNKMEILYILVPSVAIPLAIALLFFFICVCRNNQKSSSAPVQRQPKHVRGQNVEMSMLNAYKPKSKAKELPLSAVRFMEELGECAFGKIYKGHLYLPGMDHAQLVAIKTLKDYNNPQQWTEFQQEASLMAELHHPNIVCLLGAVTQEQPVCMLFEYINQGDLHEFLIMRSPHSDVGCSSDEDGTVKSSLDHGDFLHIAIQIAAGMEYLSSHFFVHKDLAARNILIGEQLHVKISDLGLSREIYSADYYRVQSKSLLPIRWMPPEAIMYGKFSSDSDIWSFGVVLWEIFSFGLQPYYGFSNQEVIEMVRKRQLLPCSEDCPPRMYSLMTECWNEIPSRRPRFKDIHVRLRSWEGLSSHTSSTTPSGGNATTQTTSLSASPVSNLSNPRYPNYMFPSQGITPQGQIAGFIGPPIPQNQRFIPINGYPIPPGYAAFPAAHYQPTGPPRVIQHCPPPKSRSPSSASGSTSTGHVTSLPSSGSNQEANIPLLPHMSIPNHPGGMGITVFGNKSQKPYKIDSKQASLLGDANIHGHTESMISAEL
Put plainly: cell imaging (CellInsight) on CHO cells expressing the shuffle construct. How it is done:
(§1) Binding was determined […] using a cell imaging screening system (Celllnsight, Thermo Fisher) as per manufacturer's recommendations. In short, CHO cells expressing shuffle constructs ROR112, ROR121, ROR122, ROR211 or ROR221 (3,000 cells/well in 384-well plates) were incubated with antibody or control samples for 18 h at 37° C./5% CO₂, washed and incubated with an Alexa488-labeled detection antibody for 4 h. Hoechst dye was added and fluorescence images were collected, measuring total spot intensity (RFU).

For assay [2], the target named is T2, ROR211 shuffle variant (Ig-like domain of ROR2, CRD and kringle domain of ROR1) (human (ROR1/ROR2 chimera), UniProt Q01973 18-937).
T2 construct: Transiently expressed on CHO cells
T2 chain: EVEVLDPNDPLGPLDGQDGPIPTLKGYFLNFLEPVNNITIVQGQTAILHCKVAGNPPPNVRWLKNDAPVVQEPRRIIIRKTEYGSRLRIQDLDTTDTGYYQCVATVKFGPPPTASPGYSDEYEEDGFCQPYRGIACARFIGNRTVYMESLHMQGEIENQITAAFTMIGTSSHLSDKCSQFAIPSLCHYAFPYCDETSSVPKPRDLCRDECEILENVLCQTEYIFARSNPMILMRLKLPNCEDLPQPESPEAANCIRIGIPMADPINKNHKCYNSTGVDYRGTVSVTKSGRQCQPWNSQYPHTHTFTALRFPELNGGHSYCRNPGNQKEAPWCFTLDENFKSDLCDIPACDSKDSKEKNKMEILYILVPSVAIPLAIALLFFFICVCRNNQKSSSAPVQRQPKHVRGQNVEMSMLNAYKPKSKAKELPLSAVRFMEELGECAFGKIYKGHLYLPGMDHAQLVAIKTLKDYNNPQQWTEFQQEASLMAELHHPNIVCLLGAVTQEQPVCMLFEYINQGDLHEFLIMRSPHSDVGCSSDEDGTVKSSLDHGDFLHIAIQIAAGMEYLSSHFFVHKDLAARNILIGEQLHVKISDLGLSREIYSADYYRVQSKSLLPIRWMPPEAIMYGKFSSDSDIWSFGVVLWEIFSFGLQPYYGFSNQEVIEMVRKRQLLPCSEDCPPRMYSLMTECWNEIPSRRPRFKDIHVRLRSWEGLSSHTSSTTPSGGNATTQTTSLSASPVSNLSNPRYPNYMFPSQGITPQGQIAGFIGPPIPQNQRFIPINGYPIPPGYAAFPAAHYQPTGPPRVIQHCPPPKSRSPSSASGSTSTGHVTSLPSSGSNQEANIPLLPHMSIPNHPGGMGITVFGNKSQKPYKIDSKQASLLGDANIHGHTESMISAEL
The assay is described as above. How it is done: as §1

B1: chIgG1-ROR2-A (antibody, V domains shown)
VH: QSVEESGGRLVTPGTPLTLTCTVSGFSLSSYSMSWVRQAPGKGLEWIGVIYVNSKTWYANWAKGRFTISKTSTTVDLKITSPTTEDTATYFCARGDAGYTTNSWLWGPGTLVTVSS
VL: AFELTQTPASVSEPVGGTVTIKCQASESIDNYCSWYQQKPGQPPKLLIYQAFKLASGVPSRFRGSGSGTQFTLTISDLESDDAATYYCQSYSGISTTAFGGGTEVVVK
notes: Rabbit-human chimeric antibody; also called ROR2 specific antibody A
As to B1, the “RFU (total spot intensity)” value in assay [1] and in assay [2] was 0 RFU each time. The binding result in assay [1] and in assay [2] was “no binding (tested: RFU = 0)” throughout.
